# Results reported in the supplement of paper PMC10724198.
# Key:
# Saccharomyces cerevisiae [1] = test: protein stability index of tFT-peptide fusion in wild type (PSI (0-1 scale)); higher = more stable (slower turnover); details: genetic background: wild type
# Saccharomyces cerevisiae [2] = test: protein stability index of tFT-peptide fusion in deletion strain of DOA10 (PSI (0-1 scale)); higher = more stable (slower turnover)
# Protocol: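 MPS profiling in S. cerevisiae of two library types built from selected 12-aa C-degron peptides (IN1, IN2, LN1, LN3, VN2, R1-R5, W1-W3, Atg1 and Rpa12 C-termini): saturation mutagenesis libraries and C-terminal +1 capping libraries (13 aa). Each peptide is fused to the C-terminus of a sfGFP-mCherry timer, after a GGGS linker. Cells are FACS-sorted into 8 mCherry/sfGFP bins and sequenced. PSI runs from 0 (unstable) to 1 (stable), measured once in wild type and in the das1Δ or doa10Δ background.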
# 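Throughout, for protein stability index of tFT-peptide fusion in deletion strain of DOA10: PSI per variant is the weighted mean of its sequencing read distribution over the sorted stability bins, counting only variants with over 10 reads summed across bins.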
# 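Throughout, for protein stability index of tFT-peptide fusion in wild type: PSI derived as read-weighted mean over the 8 sorting bins, only variants exceeding 10 total reads kept, mCherry placed adjacent to the peptide and sfGFP distal.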
Sequence,protein stability index (Saccharomyces cerevisiae [1]),protein stability index (Saccharomyces cerevisiae [2])
AFTLPMCPLLLR,0.171,0.653
AICLPMCPLLLR,0.224,0.632
AILLPMCPLLLR,0.281,0.612
AITLPMCALLLR,0.149,0.638
AITLPMCPLLKR,0.645,0.676
AITLPMCPLLLI,0.493,0.596
AITLPMCPLLLRD,0.422,0.65
AITLPMCPLLLV,0.349,0.417
AITLPMCPLLVR,0.181,0.231
AITLPMCPLTLR,0.363,0.672
AITLPMCQLLLR,0.174,0.663
AITLPMEPLLLR,0.441,0.67
AITLPMVPLLLR,0.153,0.622
AITLPNCPLLLR,0.337,0.682
AITLPSCPLLLR,0.304,0.669
AITVPMCPLLLR,0.299,0.656
CKVSLPILLFFR,0.0542,0.621
CLASLPILLFFR,0.0826,0.626
CLHSLPILLFFR,0.0715,0.626
CLVRLPILLFFR,0.0563,0.595
CLVSAPILLFFR,0.11,0.639
CLVSCPILLFFR,0.0926,0.578
CLVSGPILLFFR,0.217,0.631

Sequence,protein stability index (Saccharomyces cerevisiae [1]),protein stability index (Saccharomyces cerevisiae [2])
CLVSIPILLFFR,0.057,0.556
CLVSLPILLFFRE,0.148,0.582
CLVSLPILLFFRN,0.0659,0.531
CLVSLPILLFMR,0.0691,0.56
CLVSLPILLMFR,0.0704,0.581
CLVSLPILLPFR,0.642,0.67
CLVSLPILLRFR,0.153,0.647
CLVSLPILMFFR,0.0684,0.591
CLVSLPILTFFR,0.523,0.643
CLVSLPNLLFFR,0.11,0.685
CQVSLPILLFFR,0.0497,0.631
GKYMCSVGCWFR,0.406,0.674
GLYICSVGCWFR,0.181,0.539
GLYLCSVGCWFR,0.21,0.575
GLYMCNVGCWFR,0.385,0.676
GLYMCPVGCWFR,0.26,0.664
GLYMCSFGCWFR,0.239,0.665
GLYMCSHGCWFR,0.435,0.695
GLYMCSVCCWFR,0.47,0.548
GLYMCSVDCWFR,0.574,0.615
GLYMCSVGCWFF,0.473,0.532
GLYMCSVGCWFK,0.291,0.628
GLYMCSVGCWFRF,0.166,0.636

Sequence,protein stability index (Saccharomyces cerevisiae [1]),protein stability index (Saccharomyces cerevisiae [2])
GLYMCSVGCWFRN,0.286,0.584
GLYMCSVGCWFS,0.381,0.445
GLYMCSVGCWVR,0.215,0.341
GLYMCSVGGWFR,0.644,0.674
GLYMCSVGHWFR,0.656,0.679
GLYMCSVGSWFR,0.634,0.69
GLYMCSVYCWFR,0.255,0.374
GLYMHSVGCWFR,0.255,0.706
GLYMLSVGCWFR,0.246,0.464
GSLRVLLPLYFR,0.242,0.685
HLYMCSVGCWFR,0.401,0.63
LLVSLPILLFFR,0.0951,0.561
PLVSLPILLFFR,0.138,0.661
QLYMCSVGCWFR,0.368,0.625
RDTRLDAIYFRI,0.563,0.644
RFTRLDAIYFRI,0.378,0.656
RITRLDAIYFRI,0.397,0.673
RMLRVLLPLYFR,0.359,0.656
RNLRVLLPLYFR,0.302,0.682
RSLGVLLPLYFR,0.321,0.691
RSLRMLLPLYFR,0.376,0.615
RSLRVHLPLYFR,0.157,0.67
RSLRVILPLYFR,0.197,0.675

Sequence,protein stability index (Saccharomyces cerevisiae [1]),protein stability index (Saccharomyces cerevisiae [2])
RSLRVLLKLYFR,0.417,0.616
RSLRVLLPLKFR,0.431,0.67
RSLRVLLPLRFR,0.41,0.661
RSLRVLLPLYAR,0.348,0.474
RSLRVLLPLYFD,0.491,0.63
RSLRVLLPLYFI,0.255,0.528
RSLRVLLPLYFK,0.25,0.633
RSLRVLLPLYFM,0.328,0.42
RSLRVLLPLYFQ,0.431,0.615
RSLRVLLPLYFRA,0.244,0.593
RSLRVLLPLYFRI,0.184,0.484
RSLRVLLPLYFRT,0.268,0.655
RSLRVLLPLYFS,0.246,0.352
RSLRVLLPLYFT,0.265,0.478
RSLRVLLPLYKR,0.602,0.662
RSLRVLLPSYFR,0.65,0.668
RSLRVLLRLYFR,0.391,0.625
RSLRVLLSLYFR,0.452,0.643
RSLRVLLVLYFR,0.269,0.389
RSLRVLRPLYFR,0.257,0.684
